# PMC7615680, “In vitro construction of the COQ metabolon unveils the molecular determinants of coenzyme Q biosynthesis” (Nature catalysis, 2024)
# Assays:
# [1] = test system: CC(C)=CCc1cc(C(=O)O)cc(O)c1O; test: purified protein; conditions: 2 mM SAM, no added Mg2+, pH 7.2, 25 °C
# [2] = target: T1, COQ3 (tetrapod ancestral) (Tetrapoda, UniProt Z9LPW8APZ1); test: microscale thermophoresis; format: binding
# T1 construct: expressed in E. coli
# T1 sequence (Z9LPW8APZ1 39-362): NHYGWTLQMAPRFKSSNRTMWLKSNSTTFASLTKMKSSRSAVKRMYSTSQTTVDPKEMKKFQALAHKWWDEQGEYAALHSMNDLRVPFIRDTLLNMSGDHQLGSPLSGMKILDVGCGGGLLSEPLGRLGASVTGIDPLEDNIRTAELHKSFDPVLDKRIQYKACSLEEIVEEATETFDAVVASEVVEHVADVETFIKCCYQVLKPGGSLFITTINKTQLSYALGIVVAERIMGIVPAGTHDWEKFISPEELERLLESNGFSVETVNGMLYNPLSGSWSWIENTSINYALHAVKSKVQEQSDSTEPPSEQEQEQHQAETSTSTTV
# [3] = test system: Nc1ncnc2c1ncn2[C@@H]1O[C@H](COP(=O)(O)OP(=O)(O)OP(=O)(O)O)[C@@H](O)[C@H]1O; test: ATPase activity (Malachite green phosphate); format: biochemical, Tetrapoda; conditions: basal ATPase; no COQ partner or intermediate
# [4] = test system: COc1cc(O)cc(CC=C(C)C)c1O; test: purified protein; conditions: 1 mM SAM, 150 uM NADH, 25 °C
# [5] = test system: NC(=O)C1=CN([C@@H]2O[C@H](COP(=O)(O)OP(=O)(O)OC[C@H]3O[C@@H](n4cnc5c(N)ncnc54)[C@H](O)[C@@H]3O)[C@@H](O)[C@H]2O)C=CC1; test: purified protein; conditions: 700 uM non-prenylated 5ox, without COQ9, 0.05% DDM, pH 7.2, 25 °C
compound,measurement,setting,value
COQ3 (tetrapod ancestral) (Tetrapoda),Km,[1],887.9 µM
same,kcat,[1],0.0467 s⁻¹
"CC(C)=CCc1cc(C(=O)O)cc(O)c1O [compound 2, 3,4-dihydroxy-5-(3-methylbut-2-en-1-yl)benzoic acid]",Kd,[2],6.5 µM
COQ8B (tetrapod ancestral) (Tetrapoda),Km,[3],26.6 µM
same,kcat,[3],0.0067 s⁻¹
COQ5 (tetrapod ancestral) (Tetrapoda),Km,[4],444 µM
same,kcat,[4],0.04 s⁻¹
COQ7 (tetrapod ancestral) (Tetrapoda),Km,[5],141.7 µM
same,kcat,[5],0.02 s⁻¹
